Results published in patent US20250051474A1, “ANTI-CD97 ANTIBODIES AND ANTIBODY-DRUG CONJUGATES” (New York University, priority 2023, published 2025).

How the values were obtained:
[1] = molecular target: T1, CD97 GAIN mutant T351K expressed on ExpiCHO cells (human, UniProt P48960 21-835); assay: cell-based binding assay: CD97 GAIN mutant T351K transiently expressed on ExpiCHO cells, A8 Fab titrated, flow cytometry MFI; lower panel
T1 construct: numbering of isoform 1; whole entry named
T1 sequence: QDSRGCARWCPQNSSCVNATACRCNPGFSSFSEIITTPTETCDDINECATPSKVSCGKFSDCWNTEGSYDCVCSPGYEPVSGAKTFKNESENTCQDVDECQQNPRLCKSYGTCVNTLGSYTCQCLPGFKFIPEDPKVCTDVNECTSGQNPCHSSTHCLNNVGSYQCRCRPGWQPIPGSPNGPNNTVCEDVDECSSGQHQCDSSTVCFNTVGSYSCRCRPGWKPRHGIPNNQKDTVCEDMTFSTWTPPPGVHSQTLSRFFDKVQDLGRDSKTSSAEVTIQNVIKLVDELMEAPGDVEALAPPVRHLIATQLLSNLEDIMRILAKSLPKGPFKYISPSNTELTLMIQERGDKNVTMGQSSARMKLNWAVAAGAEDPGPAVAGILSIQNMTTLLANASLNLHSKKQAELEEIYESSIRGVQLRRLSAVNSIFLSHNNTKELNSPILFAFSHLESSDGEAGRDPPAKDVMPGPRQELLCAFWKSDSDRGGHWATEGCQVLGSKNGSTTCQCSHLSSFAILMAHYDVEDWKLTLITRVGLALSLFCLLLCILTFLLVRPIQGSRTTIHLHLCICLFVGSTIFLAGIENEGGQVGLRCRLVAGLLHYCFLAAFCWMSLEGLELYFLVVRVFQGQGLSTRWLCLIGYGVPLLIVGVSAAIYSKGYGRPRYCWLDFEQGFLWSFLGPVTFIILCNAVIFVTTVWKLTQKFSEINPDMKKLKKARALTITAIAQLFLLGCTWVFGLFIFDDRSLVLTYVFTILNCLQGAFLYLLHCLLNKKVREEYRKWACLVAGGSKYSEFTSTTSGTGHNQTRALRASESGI
Description: (§1) KD values were determined from the curve fitting of a 1:1 binding model.

[2] = molecular target: T2, CD97 (ADGRE5) isoform 1 ectodomain, purified and biotinylated (human, UniProt P48960 21-552, limits assumed, biotinylated in vitro using the BirA enzyme); assay: bead-based binding titration (biotinylated antigen on streptavidin beads, flow cytometry), 1:1 fit
T2 construct: the whole entry for isoform 1 is named here; also called CD97 isoform 1; Biotinylated CD97 isoform 1
T2 sequence: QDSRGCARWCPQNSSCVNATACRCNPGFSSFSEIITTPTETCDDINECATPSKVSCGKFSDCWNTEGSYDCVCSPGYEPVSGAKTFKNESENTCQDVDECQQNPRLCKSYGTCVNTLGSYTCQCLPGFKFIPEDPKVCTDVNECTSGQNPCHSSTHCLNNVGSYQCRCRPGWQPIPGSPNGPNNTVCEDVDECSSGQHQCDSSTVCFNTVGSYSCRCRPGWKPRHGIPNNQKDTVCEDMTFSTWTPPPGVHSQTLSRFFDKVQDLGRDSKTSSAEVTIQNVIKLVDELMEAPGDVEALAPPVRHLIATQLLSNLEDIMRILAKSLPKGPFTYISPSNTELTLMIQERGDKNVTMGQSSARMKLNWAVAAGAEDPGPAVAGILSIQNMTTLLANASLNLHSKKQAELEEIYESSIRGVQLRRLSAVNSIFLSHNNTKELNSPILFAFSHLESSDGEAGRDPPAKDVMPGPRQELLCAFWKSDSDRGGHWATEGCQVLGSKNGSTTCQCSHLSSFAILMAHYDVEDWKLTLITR

[3] = molecular target: T3, CD97 (ADGRE5) isoform 2 ectodomain, purified and biotinylated (human, UniProt P48960 21-552, biotinylated in vitro using the BirA enzyme); assay: as above
T3 construct: the whole entry for isoform 2 is named here; also called CD97 isoform 2
T3 sequence: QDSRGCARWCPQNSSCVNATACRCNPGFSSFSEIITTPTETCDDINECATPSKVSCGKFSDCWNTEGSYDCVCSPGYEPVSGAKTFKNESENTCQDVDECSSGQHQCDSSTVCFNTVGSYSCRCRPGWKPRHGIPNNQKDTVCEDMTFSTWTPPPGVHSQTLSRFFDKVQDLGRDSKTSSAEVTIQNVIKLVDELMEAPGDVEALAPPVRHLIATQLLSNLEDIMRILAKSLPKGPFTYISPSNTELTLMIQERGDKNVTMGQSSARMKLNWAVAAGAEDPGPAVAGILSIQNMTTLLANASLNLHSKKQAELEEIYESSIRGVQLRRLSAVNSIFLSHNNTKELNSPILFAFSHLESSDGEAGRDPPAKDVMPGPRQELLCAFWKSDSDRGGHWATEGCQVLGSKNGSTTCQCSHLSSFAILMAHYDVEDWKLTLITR

R380A = molecular target: T4, R380A (human, UniProt P48960); assay: cell-based binding assay: CD97 GAIN mutant transiently expressed on ExpiCHO cells, A8 Fab titrated, flow cytometry MFI, 1:1 fit; upper panel
T4 construct: transiently expressed on the surface of ExpiCHO cells, gated by anti-V5 tag staining; also called CD97 GAIN mutant R380A expressed on ExpiCHO cells
T4 sequence (receptor, looked up): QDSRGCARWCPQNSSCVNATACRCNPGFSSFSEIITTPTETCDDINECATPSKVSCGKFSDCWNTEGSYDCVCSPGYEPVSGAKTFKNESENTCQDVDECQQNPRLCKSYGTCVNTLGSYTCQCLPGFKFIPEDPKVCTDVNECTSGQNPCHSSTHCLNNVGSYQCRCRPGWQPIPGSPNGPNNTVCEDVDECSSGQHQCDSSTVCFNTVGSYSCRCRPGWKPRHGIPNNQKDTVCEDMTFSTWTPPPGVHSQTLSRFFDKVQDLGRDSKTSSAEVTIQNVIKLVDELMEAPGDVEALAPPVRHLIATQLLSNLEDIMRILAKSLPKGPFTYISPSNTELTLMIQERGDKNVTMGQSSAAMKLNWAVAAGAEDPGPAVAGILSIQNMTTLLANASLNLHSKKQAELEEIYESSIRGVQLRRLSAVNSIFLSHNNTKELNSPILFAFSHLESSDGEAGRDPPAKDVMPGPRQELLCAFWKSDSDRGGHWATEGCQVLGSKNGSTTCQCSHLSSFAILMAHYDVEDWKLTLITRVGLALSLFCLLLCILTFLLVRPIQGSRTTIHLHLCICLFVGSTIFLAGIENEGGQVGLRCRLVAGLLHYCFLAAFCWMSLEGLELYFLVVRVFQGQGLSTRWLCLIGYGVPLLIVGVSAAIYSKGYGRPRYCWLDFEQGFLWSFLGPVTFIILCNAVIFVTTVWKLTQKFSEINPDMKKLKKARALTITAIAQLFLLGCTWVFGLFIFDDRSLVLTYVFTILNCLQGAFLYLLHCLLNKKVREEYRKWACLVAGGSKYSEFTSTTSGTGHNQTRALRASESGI
Description: as §1

binding result [1]: no binding (tested: 1000 nM)
Kd [2]: 2.4 nM
Kd [3]: 2.2 nM
Kd (R380A): 160 nM
B1: Antibody clone A8, Fab format (Fab, V domains shown)
VH: EVQLVESGGGLVQPGGSLRLSCAASGFTISSYSIHWVRQAPGKGLEWVASISPYYGSTSYADSVKGRFTISADTSKNTAYLQMNSLRAEDTAVYYCARSWYYYEQNPYWYQKEEQALDYWGQGTLVTVSS
VL: DIQMTQSPSSLSASVGDRVTITCRASQSVSSAVAWYQQKPGKAPKLLIYSASSLYSGVPSRFSGSRSGTDFTLTISSLQPEDFATYYCQQSVYSPVTFGQGTKVEIKR
notes: Fab; also called wild type A8
